# Patent publication US11833164B2, “Methods of treating Fabry disease in patients having a mutation in the GLA gene” (Amicus Therapeutics, Inc., priority 2019, dated 2023)
# Where a chain is given by its changes, count along the chain named. Names and notes keep the numbering of the source.
# B1: H186L (protein)
# chain: MQLRNPELHLGCALALRFLALVSWDIPGARALDNGLARTPTMGWLHWERFMCNLDCQEEPDSCISEKLFMEMAELMVSEGWKDAGYEYLCIDDCWMAPQRDSEGRLQADPQRFPHGIRQLANYVHSKGLKLGIYADVGNKTCAGFPGSFGYYDIDAQTFADWGVDLLKFDGCYCDSLENLADGYKLMSLALNRTGRSIVYSCEWPLYMWPFQKPNYTEIRQYCNHWRNFADIDDSWKSIKSILDWTSFNQERIVDVAGPGGWNDPDMLVIGNFGLSWNQQVTQMALWAIMAAPLFMSNDLRHISPQAKALLQDKDVIAINQDPLGKQGYQLRQGDNFEVWERPLSGLAWAVAMINRQEIGGPRSYTIAVASLGKGVACNPACFITQLLPVKRKLGFYEWTSRLRSHINPTGTVLLQLENTMQMSLKDLL
# B2: L189S (protein)
# chain: B1 chain with L186H, L189S
# B3: S188C (protein)
# chain: B1 chain with L186H, S188C
# B4: L189V (protein)
# chain: B1 chain with L186H, L189V
# B5: S188Y (protein)
# chain: B1 chain with L186H, S188Y
# B6: S188P (protein)
# chain: B1 chain with L186H, S188P
# B7: L191M (protein)
# chain: B1 chain with L186H, L191M
# B8: M187L (protein)
# chain: B1 chain with L186H, M187L
# B9: H186Q (protein)
# chain: B1 chain with L186Q
# B10: A190D (protein)
# chain: B1 chain with L186H, A190D
# B11: L191V (protein)
# chain: B1 chain with L186H, L191V
# B12: N192D (protein)
# chain: B1 chain with L186H, N192D
# B13: S188T (protein)
# chain: B1 chain with L186H, S188T
# B14: A190T (protein)
# chain: B1 chain with L186H, A190T
# B15: A190V (protein)
# chain: B1 chain with L186H, A190V
# B16: S188F (protein)
# chain: B1 chain with L186H, S188F
# B17: A190S (protein)
# chain: B1 chain with L186H, A190S
# B18: A190G (protein)
# chain: B1 chain with L186H, A190G
# B19: H186Y (protein)
# chain: B1 chain with L186Y
# B20: H186N (protein)
# chain: B1 chain with L186N
# B21: S188A (protein)
# chain: B1 chain with L186H, S188A
# Test system: mutant form of α-Gal A expressed in HEK-293 cells
# Test: HEK assay (GLP HEK / Migalastat Amenability Assay): α-Gal A activity in lysates of transiently transfected HEK-293 cells incubated with or without 10 μM migalastat
# Format: cell-based, human
# Conditions: 10 μM migalastat versus baseline
# In short: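 Activity reported as 4-MU released (nmol/mg/hr), mean±SEM, from lysates of transiently transfected HEK-293 cells expressing mutant α-Gal A, cultured with or without 10 μM migalastat.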
row,Molecule,Absolute increase (% WT)
1,B1,27.1
2,B2,20.1
3,B3,18.5
4,B4,20.2
5,B5,31.5
6,B6,3.2
7,B7,41.7
8,B8,29.2
9,B9,28.5
10,B10,26.9
11,B11,39.1
12,B12,55.6
13,B13,24.0
14,B14,30.7
15,B15,41.2
16,B16,36.4
17,B17,26.1
18,B18,27.4
19,B19,39.8
20,B20,26.8
21,B21,25.7

# Same assay, conditions: 10 μM migalastat α-Gal A activity relative to baseline
row,Molecule,Relative increase
1,B1,1.3
2,B2,1.3
3,B3,1.4
4,B4,1.3
5,B5,2.0
6,B7,1.8
7,B8,6.7
8,B9,1.4
9,B10,2.2
10,B11,1.6
11,B12,3.2
12,B13,1.5
13,B14,2.1
14,B15,2.2
15,B16,2.8
16,B17,1.3
17,B18,1.4
18,B19,1.4
19,B20,1.4
20,B21,1.4

# Same assay, conditions: 10 μM migalastat, 5 days; percentage of baseline wild-type α-Gal A activity; mean ± SEM
row,Molecule,10 μM migalastat α-Gal A activity (% WT)
1,B1,97.5 ± 8.2
2,B2,92.7 ± 3.2
3,B3,68.6 ± 4.3
4,B4,100.1 ± 3.9
5,B5,64.1 ± 3.5
6,B6,3.2 ± 0.2
7,B7,100.2 ± 9.8
8,B8,34.5 ± 1.9
9,B9,105.3 ± 7
10,B10,49 ± 3.4
11,B11,110.2 ± 7.9
12,B12,81.5 ± 6.7
13,B13,69.5 ± 4.5
14,B14,57 ± 1.9
15,B15,77.9 ± 9.5
16,B16,57.1 ± 2.8
17,B17,110.6 ± 5.5
18,B18,97.9 ± 9.8
19,B19,123.6 ± 8.9
20,B20,90.3 ± 5.8
21,B21,86.3 ± 4.9

# Same assay, conditions: absence of migalastat; mean activity below the limit of detection (<142 nmol/mg/hr)
row,Molecule,Baseline α-Gal A activity (nmol/mg/hr)
1,B6,BLD (“BLD” indicates that the mean α-Gal A activity was below the limit of detection (<142 nmol/mg/hr))

# Same assay, conditions: absence of migalastat; percentage of baseline wild-type α-Gal A activity; mean ± SEM
row,Molecule,Baseline α-Gal A activity (% WT)
1,B1,70.4 ± 3.4
2,B2,72.6 ± 3.1
3,B3,50.1 ± 3.7
4,B4,79.9 ± 5.1
5,B5,32.6 ± 2.6
6,B7,58.4 ± 6.6
7,B8,5.3 ± 0.2
8,B9,76.9 ± 4.3
9,B10,22.1 ± 1
10,B11,71.1 ± 4.7
11,B12,25.9 ± 3
12,B13,45.4 ± 2.5
13,B14,26.3 ± 2
14,B15,36.8 ± 5.1
15,B16,20.7 ± 2
16,B17,84.5 ± 3.2
17,B18,70.5 ± 7.3
18,B19,83.8 ± 4.5
19,B20,63.5 ± 3.1
20,B21,60.6 ± 4

# Same assay, conditions: lysates of HEK-293 cells transfected with the mutant form, incubated 5 days in the absence of migalastat; mean ± SEM
row,Molecule,Baseline α-Gal A activity [nmol/mg/h]
1,B1,31615 ± 1833
2,B2,23204 ± 1213
3,B3,18465 ± 1552
4,B4,25544 ± 1758
5,B5,12244 ± 1167
6,B7,19968 ± 2010
7,B8,1924 ± 64
8,B9,28845 ± 2365
9,B10,7141 ± 423
10,B11,24068 ± 1533
11,B12,9035 ± 886
12,B13,17041 ± 1389
13,B14,8600 ± 733
14,B15,12542 ± 1642
15,B16,7746 ± 839
16,B17,27316 ± 1369
17,B18,24299 ± 2173
18,B19,37644 ± 2421
19,B20,28175 ± 1462
20,B21,22589 ± 1833

# Same assay, conditions: lysates of HEK-293 cells transfected with the mutant form, incubated 5 days with 10 μM migalastat; mean ± SEM
row,Molecule,10 μM migalastat α-Gal A activity [nmol/mg/h]
1,B1,42145 ± 2540
2,B2,29510 ± 1181
3,B3,25569 ± 2083
4,B4,32031 ± 1633
5,B5,23849 ± 1725
6,B6,1159 ± 61
7,B7,34977 ± 3072
8,B8,12810 ± 929
9,B9,38865 ± 2966
10,B10,15887 ± 1308
11,B11,37342 ± 2569
12,B12,28923 ± 1892
13,B13,26198 ± 2461
14,B14,18373 ± 795
15,B15,27078 ± 2910
16,B16,21273 ± 1477
17,B17,35787 ± 2235
18,B18,34126 ± 2992
19,B19,53613 ± 2581
20,B20,39509 ± 1885
21,B21,32197 ± 2515
